The values that follow come from patent US20120301469A1 (Ablynx, published 2012).

Bounds are passed on as bounds.

Assay [1] deals with T1, hRSV FTM-NN (membrane anchorless form of the Long fusion protein, 70 kDa) (human respiratory syncytial virus, …, UniProt P12568 26-524).
T1 construct: also called FTM-NN (Long); hRSV FTM-protein
Nature of the assay: SPR (Biacore), FTM-NN amine-coupled on CM5 chip, 1:1 Langmuir fit. (In general: In SPR one partner is held on a chip, and binding of the other changes the refractive index at the surface.)

Assay [2] addresses T2, protein F of hRSV strain B-1 (on RSV B-1-infected Hep2 cells and on virus) (human respiratory syncytial virus, …, UniProt P13843 26-574). As to the kind of experiment: cell-based or functional assay.
Assay [3] deals with T1, hRSV FTM-NN (membrane anchorless form …). As to the kind of experiment: competition ELISA on FTM-NN, competitor Synagis Mab, purified Nanobody. For orientation: An ELISA detects its analyte on a solid surface through an enzyme-linked reagent.
For assay [4], the target named is T3, protein F of hRSV strain Long, on virus (inactivated hRSV Long, Hytest #8RSV79; RSV Long LM-2, ATCC VR-26) (human respiratory syncytial virus, …, UniProt P12568 26-574). As to the kind of experiment: cell-based or functional assay.
Assay [5] has as its target T1, hRSV FTM-NN (membrane anchorless form …). Nature of the assay: ELISA on immobilized FTM-NN, periplasmic extract 1:10.
The target in assay [6] is T2, protein F of hRSV strain B-1 (on RSV …). As to the kind of experiment: cell ELISA on RSV B-1-infected Hep2 cells, periplasmic extract 1:200.
The target is the same in assay [7]. As to the kind of experiment: cell ELISA on RSV B-1-infected Hep2 cells, periplasmic extract 1:50.
Assay [8] has the same target. Nature of the assay: cell-based or functional assay. This is another data set of the same source.
Assay [9] concerns the target T3, protein F of hRSV strain Long, on virus …. As to the kind of experiment: cell-based or functional assay. This is another data set of the same source.

B1: Nanobody NC41 (VHH)
VHH: EVQLVESGGGLVQAGGSLSISCAASGGSLSNYVLGWFRQAPGKEREFVAAINWRGDITIGPPNVEGRFTISRDNAKNTGYLQMNSLAPDDTAVYYCGAGTPLNPGAYIYDWSYDYWGRGTQVTVSS
As a reminder, the Kd is a measure of binding affinity in units of concentration. Low values mean a tighter complex, high ones a looser complex. A word on the koff: it is the first-order rate constant of dissociation. Usually kon stands for a measure of how fast the partners come together. A higher kon goes with fast association. The IC50 is the midpoint of a concentration-inhibition curve. A low value points to higher potency. In assay [1], B1 yielded a Kd of 8.1 nM, a koff of 0.0067 s⁻¹ and a kon of 820000 M⁻¹ s⁻¹. For the same molecule, the “micro-neutralization of RSV B-1” value in [2] was above 10 µM. For the same molecule, the IC50 in [3] was found to be 416 nM. For the same molecule, the “Neutralization Long IC50” value in [4] amounted to 221 nM.

B2: Nanobody 1G3 (VHH)
VHH: EVQLVESGGGLVQAGGSLRLSCEASGRTYSRYGMGWFRQAPGKEREFVAAVSRLSGPRTVYADSVKGRFTISRDNAENTVYLQMNSLKPEDTAVYTCAAELTNRNSGAYYYAWAYDYWGQGTQVTVSS
notes: also called PMP1G3; PRSV1G3
As to B2, the “micro-neutralization of RSV B-1” value in [2] was above 10 µM. Moreover, in assay [5], the “Binding Long 1:10 PE (Fold blanc)” value is 3.4 fold blanc. Further, the IC50 in [3] stood at 72.5 nM. The “Binding Hep2-B-1 (% control) 1:200 PE” value in assay [6] turned out to be 45 % control. Further, the “Binding Hep2-B-1 (% control) 1:50 PE” value in [7] stood at 52 % control. In addition, the “Neutralization B-1 IC50” value in assay [8] was above 10000 nM. Moreover, the “Neutralization Long IC50” value in assay [4] came out at 413 nM.

B3: Nanobody 19C4 (VHH)
VHH: EVQLVESGGGLVQAGGSLRLSCAASGRSFSNYVLGWFRQAPGKEREFVAAISFRGDSAIGAPSVEGRFTISRDNAKNTGYLQMNSLVPDDTAVYYCGAGTPLNPGAYIYDWSYDYWGRGTQVTVSS
notes: also called PMP19C4; PRSV19C4
As for B3, the “micro-neutralization of RSV B-1” value in assay [2] is above 10 µM. In addition, the “Binding Long 1:10 PE (Fold blanc)” value in assay [5] came to 2.5 fold blanc. Besides, the IC50 in assay [3] was determined as 209 nM. Also, the “Binding Hep2-B-1 (% control) 1:200 PE” value in assay [6] is 50 % control. In assay [7], the “Binding Hep2-B-1 (% control) 1:50 PE” value was determined as 72 % control. In assay [8], the “Neutralization B-1 IC50” value is above 10000 nM. In assay [4], the “Neutralization Long IC50” value turned out to be 332 nM.

B4: Nanobody 7B2 (VHH)
VHH: EVQLVESGGGLVQAGDSLRLSCAASGRTFSSYAMGWFRQAPGKEREFVAAISWSDGSTYYADSVKGRFTISRDNAKNTVYLQMNSLKPEDTAVYYCAADLTSTNPGSYIYIWAYDYWGQGTQVTVSS
notes: also called PMP7B2; PRSV7B2
In assay [1], B4 had a Kd of 1.5 nM, a koff of 0.00049 s⁻¹ and a kon of 340000 M⁻¹ s⁻¹. The “micro-neutralization of RSV B-1” value in assay [2] was above 10 µM. Besides, in assay [9], the “RSV micro-neutralization on Long, IC50” value is 88 nM. In addition, the “Binding Long 1:10 PE (Fold blanc)” value in assay [5] was 4.7 fold blanc. This molecule returned an IC50 in [3] of 1.93 nM. Further, the “Binding Hep2-B-1 (% control) 1:200 PE” value in assay [6] amounted to 41 % control. For the same molecule, the “Binding Hep2-B-1 (% control) 1:50 PE” value in assay [7] turned out to be 61 % control. Also, the “Neutralization B-1 IC50” value in assay [8] was above 10000 nM. Besides, the “Neutralization Long IC50” value in assay [4] came out at 108 nM.
